In patent US20260258115A1 (MAPP BIOPHARMACEUTICAL, published 2026):

B1: ADI-41606 (antibody, V domains shown)
VH: EVQLLESGPGLVKPSETLSLTCTVSGGSVSSGGYYYTWIRQPPGKGLEWIGYAFYSGDTNYNPSLKSRVTISVDTSKNQFSLKLTSVTAADTAVYYCASTYTFGASGFDFWGQGTLVTVSS
VL: DIVMTQSPSFMSASVGDRVTITCRASQGISNWLLWYQQKPGKAPKLLIYAASSLQSGVPSRFSGSRSGTDFTLTISSLQPEDFAIYYCQQANSFPLTFGQGTRLEIK
notes: also called Ab 880; Antibody Number 880
B2: ADI-41583 (antibody, V domains shown)
VH: QVQLVQSGAEVKKPGSSVKVSCKASGGTFSRHTITWVRQAPGQGLEWMGRIAPIVGFANYAQKFQGRVTITADKSTSTAYMELRSLRSEDTAVYYCARRSEDYYGLDVWGQGTTVTVSS
VL: DIVMTQSPSSLSASVGDRVTITCQASQDISNYLNWYQQKPGKAPKLLIYEASNLETGVPSRFSGSGSGTDFTFTISSLQPEDIATYYCQQYDNLFGGGTKLEIK
B3: ADI-41587 (antibody, V domains shown)
VH: QVQLVQSGAGLLKPSETLSLTCAVYGGSFSGYSWSWIRQPPGKGLEWIGEINYSVSTSYNSSLKSRVSISVDTSKNQFSLKLTSVTAADTAVYYCARVGGAVADWGQGTLVTVSS
VL: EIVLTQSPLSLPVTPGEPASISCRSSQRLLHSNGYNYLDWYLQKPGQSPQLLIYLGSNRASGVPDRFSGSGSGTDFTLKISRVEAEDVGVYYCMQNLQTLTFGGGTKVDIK
B4: ADI-41581 (antibody, V domains shown)
VH: EVQLLESGSELKKPGASVKISCKTSGYTFTNYLMNWVRQAPGQGLEWMGWINTHTGNPTYAQDFTGRFVFSLDTSVNTAYLQISSLKAEDTAIYYCARDGLEAFSGYNGVDYWGQGTLVTVSS
VL: DIVMTQTPLSLPVTPGEPASISCRSSPSLLHSNGYNYLDWYLQKPGQSPQLLIYLGSTRASGVPDRFSGSGSGTDFTLRISRVEAEDVGVYYCMQALQIPLTFGQGTKLEIK
notes: also called Ab 855; Antibody Number 855
B5: ADI-41592 (antibody, V domains shown)
VH: EVQLVESGSELKKPGASVKVSCKASGYTFRTYVMNWVRQAPGQGLEWMGWINTNTGNPTYAQGFTGRFVFSLDTSVSTAYLQISSLKAEDTAVYYCARESIDDYDSSGYGRTFDYWGQGTLVTVSS
VL: SYELTQPPSVSVSPGQTASIPCSGDKVGKTYVYWYQQTPGQSPGLVIYQDTKRPSGIPERFSGSSSGNTATLTISGTQTMDEADYYCQAWDTSTASYVFGTGTKLTVL
notes: also called Ab 866; Antibody Number 866
B6: ADI-41596 (antibody, V domains shown)
VH: QVQLQQWGAGLLKPSETLSLTCAVYGDSFSGYFWTWIRQPPGKGLEWIGEINLSGSTNYNPSLKSRVTILVDTSKNQFSLKLSSVTAADTAVYYCARGLHVSDDQDSSGYYFHPGSFDYWGQGTLVTVSS
VL: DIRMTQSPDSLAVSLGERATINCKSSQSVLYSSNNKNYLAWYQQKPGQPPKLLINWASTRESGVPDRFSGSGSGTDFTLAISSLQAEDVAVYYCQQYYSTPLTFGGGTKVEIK
notes: also called Ab 870; Antibody Number 870
B7: ADI-41569 (antibody, V domains shown)
VH: EVQLLESGAEVKKPGSSVKVSCKASGGTFSTYAISWVRQAPGQGLEWMGGIIPVLGTTKYAQKFQDRVTITADESTSTAYMDLSGLRSDDTAVYYCARGVWGDCGRASCLFDWYFDLWGRGTLVTVSS
VL: EIVMTQSPATLSVSPGERVTLSCSASQTVSSNLAWYQQKPGQAPRLLIYGASIRATDIPARFSGSGSRTEFTLTISSLQSEDFAVYYCQQYNNRPPLTFGGGTKVEIK
notes: also called Ab 847; Antibody Number 847
B8: ADI-41570 (antibody, V domains shown)
VH: QVQLVQSGAEVKKPGSSVKVSCMASGGTFSNSAINWVRQAPGQGLEWMGGTIPIFGAANYAQRFQARVTITADKSTSTAYMELTSLRSDDTAVYYCVRTPHRSSDHIWGSYRYFDSWGQGTLVTVSS
VL: QSVVTQEPSVSAAPGQKITISCSGSTSNIGINYVSWYQQFPGTAPKLLIYDNDKRPSGIPDRFSGSKSGTSATLGITGLQAGDEADYYCGTWDSSLSAGHIFGGGTKVTVL
notes: also called Ab 848; Antibody Number 848
B9: ADI-41603 (antibody, V domains shown)
VH: EVQLVESGGGLVKPGRSLRLSCTTSGFTFGDYAMSWFRQAPGKGLEWVGFIRSKPYGGATAYAASVRGRFTISNDDSKSIAYLQMESLKIEDTAVYYCARDYDDFFFYDYWGQGTLVTVSS
VL: DIRMTQSPATLSVSPGERATLSCRASENIYSNLAWYQQKPGQAPRLLIYGASTRATGLPARFSGSGSGTEFTLTISSLQSEDFAVYYCQQYNNWPAFGGGTKVEIK
notes: also called Ab 877; Antibody Number 877
B10: ADI-41579 (antibody, V domains shown)
VH: QVQLVESGAEARKPGSSVKVSCKLSGGTFSTDPISWVRQAPGQGLEWMGRIIPLLGIANYAQKFQGRVTIIADKSTSTVYMELRNLRFEDTAVYFCARRGDGYYGMDVWGQGTTVTVSS
VL: QSVLTQPASVSGSPGQSITISCTGTSNDIGGYDYVSWYQQHPGKAPKLMIYDVHNRPSGVSNRFSGSKSGNTASLTISGLQAEDEADYYCSSFSDSGNLYVFGTGTKLTVL
B11: ADI-41580 (antibody, V domains shown)
VH: QVQLQQWGAGLLKPSETLSLTCAVYGGSFSGYYWSWIRQPPGKGLEWIGEMNHSGGSNYNPSFKSRVTISVDTSKKYFSLNLSSVTAADTAIYYCARTPFYYESTGYYYYYYGMDVWGQGTTVTVSS
VL: DIVMTQTPDSLAVSLGERATINCKSSQSVSHSSNNKNYLSWYQQKPGQPPKLLIYWASIRESEAPDRFTGSGSGTDFTLTISSLQAEDVAVYYCQQYYTAPITFGQGTRLEIK
notes: also called Ab 854; Antibody Number 854
B12: ADI-41561 (antibody, V domains shown)
VH: QVQLVQSGPTLVKPTQTLTLTCSFSGFSLTNTGVGVGWIRQPPGKALEWLALIYWDDDKRYRPSLKSRLTITKDTSKSQVVLTMTNMDPLDTATYYCAHRRSAYDPIYFDYWGQGALVTVSS
VL: DIRVTQSPSSVSASVGDRVTITCRASRSINNWLAWYQQKPGKAPKLLIYAASSLQSGVPSRFSGSGYGTDFTLTISSLQPEDFATYYCQQAHSFPSITFGQGTRLEIK
B13: ADI-41588 (antibody, V domains shown)
VH: QVQLVESGPTLVKPTQTLTLTCTFSGFSLSTNGVGVAWIRQPPGKALEWLAIIYWDDDKRYSPSLKSRLTITKDTSKNQVVLTVTDMDPVDTATYYCAHTIGVPAATRFDYWGQGTLVTVSS
VL: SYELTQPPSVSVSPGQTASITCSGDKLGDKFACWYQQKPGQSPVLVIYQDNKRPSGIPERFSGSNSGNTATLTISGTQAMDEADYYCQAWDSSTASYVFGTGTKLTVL
B14: ADI-41602 (antibody, V domains shown)
VH: EVQLQESGPGLVKPSETLSLTCTVSGGSLSGYYWSWIRQPPGKGLEWIGYIYHSGSTNYNPSLESRVTISVDTSKNQFSLKVNAVTAADTAVYYCAKVERLLRFDPWGQGTLVTVSS
VL: QSVLIQPASVSGSPGQSITISCIGSSSDVGGYNYVSWYQHYPGKAPKLMIYDVSNRPSGVSNRFSGSKSGNTASLTISGLQAEDEADYYCSSYTSSTSYVFGTGTKVTVL
notes: also called Ab 876; Antibody Number 876
B15: ADI-41605 (antibody, V domains shown)
VH: QVQLVESGPGLVKPSQTLSLTCSVSGGSISSDDHYWSWIRQHPGKGLEWIGYIYYSGYTNYNPSLKSRVTISVDTSKNQFSLRLSSVTAADTAVYYCARETDITIFGVVPVGYFDYWGQGTLVTVSS
VL: DIQVTQSPDSLAVSLGERATINCKSSQSILSSTNNKNFLAWYQQKPGQPPKLLLHWASTREFGVPDRFSGSGSGTEFTLTISSLQAEDVAVYYCQQYYTTPYTFGQGTKVEIK
notes: also called Ab 879; Antibody Number 879
B16: ADI-41564 (antibody, V domains shown)
VH: QVQLVQSGAEVKKPGSSVKVSCKAFGGTLRRYALSWVRQAPGQGLEWMGGIIPVFGTRRYAQKFQGRITITADGSTSTASMEVSSLRFEDTAIYYCATVYFDFVSGPPPTYYYYYMDVWGKGTTVTVSS
VL: DIVMTQSPGTLSLSPGERATLSCRASQSVSSSYLAWYQQKPGQAPRLLIYGASSRATGIPDRFSGSGSGTDFTLTISRLEPEDFAVYYCQQYDSSLRVLTFGGGTKVDIK
notes: also called Ab 844; Antibody Number 844
B17: ADI-41593 (antibody, V domains shown)
VH: QVQLVQSGVEVKKPGESLKISCKGSGYSFTNYWIAWVRQMPGKGLEWMGIIYPGDSDTRYSPSFQGQVTISADKSISTAYVQWSSLKASDTAIYYCARGDILTNSGPDAFDIWGQGTMVTVSS
VL: DIQMTQSPSSFSASTGDRVTITCRASQAISSYLAWFQQKPGKAPKLLIYAASTLQSGVPSRFSGSGSGTDFTLTISCLQSEDFATYYCQQYYSYPLTFGGGTKVEIK
notes: also called Ab 867; Antibody Number 867
B18: ADI-41600 (antibody, V domains shown)
VH: EVQLLESGGNMVQPGKSLRLSCAASGFTFSNYGMHWVRQAPGKGLEWVAVISKDGNNEHYADSVRARFTVSRDNSKNTLFLQMNSLRPEDTAVYYCAIGGLSGSYFGEYFQHWGRGTLVTVSS
VL: DIQMTQSPSSMSASLGDRVTITCRASQGISTWLAWYQQKPGEAPKLLIYAAFGLQSGVPSRFSGSGSGTDFTLTINNLQPEDFATYYCQQAISFPFTFGGGTKVEIK
notes: also called Ab 874; Antibody Number 874
B19: ADI-41586 (antibody, V domains shown)
VH: QVQLQQWGAGLLKPSETLSLTCAVYGGSFSGYSWSWIRQPPGKGLEWIGDIDHDGSTYYNSSLKSRVTMSIDTSKNQFSLKLSSVTAADTAVYYCARVGGNSGYWGQGTLVTVSS
VL: not shown
notes: also called Ab 860; Antibody Number 860
B20: ADI-41604 (antibody, V domains shown)
VH: QVTLKESGAEVKKPGASVKVSCKASGYTFTGYYMHWVRQAPGQGLEWMGRINPNSGGTNYAQKFQGRVTMTRDTSISTAYMELSRLRSDDTAVYYCAREASRFGGFDYWGQGTLVTVSS
VL: DIVLTQSPSSLSASVGDRVTITCQASQDISNYLNWYQQKPGKAPKLLIYDASNLETGVPSRFSGSGSGTDFTFTISSLQPEDIATYYCQQYDNLLGYTFGQGTKVEIK

Target: RSV F on RSV-A2 virus (Respiratory syncytial virus, RSV-A2, UniProt P03420 26-574)
Test: cell-based or functional assay

B1 and B2 cannot be ordered by “Neutralization IC50 (RSV subtype A)” value: > 25 µg/mL for the first, > 25 µg/mL for the second.

First: B3
Second: B4
The “Neutralization IC50 (RSV subtype A)” value of the first is lower: 0.664 µg/mL for the first, > 25 µg/mL for the second.

Going from B5 to B6, the “Neutralization IC50 (RSV subtype A)” value falls from > 25 µg/mL to 0.0537 µg/mL.

Compared with B7, B8 is lower in “Neutralization IC50 (RSV subtype A)” value: > 25 µg/mL for the first, 25 µg/mL for the second.

Going from B9 to B10, the “Neutralization IC50 (RSV subtype A)” value falls from > 25 µg/mL to 0.209 µg/mL.

Compared with B11, B12 is higher in “Neutralization IC50 (RSV subtype A)” value: 1.11 µg/mL for the first, > 25 µg/mL for the second.

B13 and B14 cannot be ordered by “Neutralization IC50 (RSV subtype A)” value: > 25 µg/mL for the first, > 25 µg/mL for the second.

B15 and B16 cannot be ordered by “Neutralization IC50 (RSV subtype A)” value: > 25 µg/mL for the first, > 25 µg/mL for the second.

B17 and B18 cannot be ordered by “Neutralization IC50 (RSV subtype A)” value: > 25 µg/mL for the first, > 25 µg/mL for the second.

Compared with B19, B20 is higher in “Neutralization IC50 (RSV subtype A)” value: 0.402 µg/mL for the first, > 25 µg/mL for the second.

Target: RSV prefusion F (preF), DS-Cav1 (Respiratory syncytial virus, UniProt P03420 26-513)
Test: BLI, IgG on anti-human IgG sensor, 100 nM antigen

Going from B1 to B2, the Kd falls from 3.39 nM to 0.664 nM (5.1-fold). The second binds more tightly here.

Going from B3 to B4, the Kd rises from 1.4 nM to 2.77 nM (2-fold). The first binds more tightly here.

Compared with B5, B6 is 12-fold lower in Kd: 3.74 nM for the first, 0.305 nM for the second. The second binds more tightly here.

B7 and B8 are within 1.5-fold of each other in Kd: 3.3 nM for the first, 2.97 nM for the second.

Going from B9 to B10, the Kd falls from 3.49 nM to 0.471 nM (7.4-fold). The second binds more tightly here.

B11 and B12 are within 1.5-fold of each other in Kd: 2.98 nM for the first, 3.33 nM for the second.

B13 and B14 are within 1.5-fold of each other in Kd: 3.33 nM for the first, 2.85 nM for the second.

B15 and B16 are within 1.5-fold of each other in Kd: 3.18 nM for the first, 4.44 nM for the second.

Going from B17 to B18, the Kd rises from 1.83 nM to 4.93 nM (2.7-fold).

Going from B19 to B20, the Kd rises from 0.538 nM to 17.8 nM (33-fold).

Target: RSV postfusion F (postF), F ΔFP (Respiratory syncytial virus, UniProt P03420 26-513)
Test: BLI, IgG on anti-human IgG sensor, 100 nM antigen

First: B1
Second: B2
The Kd of the first is 2.7-fold higher: 1.03 nM for the first, 0.381 nM for the second.

First: B3
Second: B4
The Kd of the first is 5.8-fold higher: 2.09 nM for the first, 0.361 nM for the second. The second binds more tightly here.

B5 and B6 are within 1.5-fold of each other in Kd: 0.44 nM for the first, 0.437 nM for the second.

B7 and B8 are within 1.5-fold of each other in Kd: 1.61 nM for the first, 1.12 nM for the second.

B9 and B10 are within 1.5-fold of each other in Kd: 0.49 nM for the first, 0.36 nM for the second.

Going from B11 to B12, the Kd falls from 1.17 nM to 0.516 nM (2.3-fold).

B13 and B14 are within 1.5-fold of each other in Kd: 0.505 nM for the first, 0.455 nM for the second.

B15 and B16 are within 1.5-fold of each other in Kd: 0.55 nM for the first, 0.596 nM for the second.

B17 and B18 are within 1.5-fold of each other in Kd: 0.53 nM for the first, 0.755 nM for the second.

Compared with B19, B20 is 37-fold higher in Kd: 0.779 nM for the first, 29.2 nM for the second. The first binds more tightly here.
